Experimental data reported in US20260258141A1 (BIOCYTOGEN PHARMACEUTICALS BEIJING, published 2026).
Numbering of substitutions follows the chain as printed.

B1: anti-IGF1R antibody 12A4 (antibody, V domains shown)
VH: EVQLVQSGGGEIRPGGSLRLSCAASGFTFADYGMSWVRQAPGEGLEWVSEIDWTGGSKLYADSVKGRFTISRDNAKNSLFLQMNSLRAEDTALYYCVRDRGAVSPKYYYYGMDVWGQGTTVTVSS
VL: EIVLTQSPSSLSASVGDRVTITCRASQGIRNDLGWYQQKPGKAPKRLIYAASRLQSGVPSRFSGSGSGTDFTLTISSLQPEDFATYYCLQHNSYPYTFGQGTKLEIK
B2: anti-IGF1R antibody 12D1 (antibody, human IgG1, V domains shown)
VH: QVQLVESGGGVVRPGGSLRLSCAASGFTFDDYGMSWVRQVPGKGLEWVSGINWNGGSTDYADSVKGRFTISREKAKNSLYLQMNSLRAEDTALYYCVRDRGAVTRRYYYYGMDVWGQGTTVTVSS
VL: B1 VL with E1D, V3Q, L4M, G28D, Q38L, D70E
B3: anti-IGF1R antibody 10G1 (antibody, human IgG1, V domains shown)
VH: QVQLVESGGGLVKPGGSLRLSCAASEFTFSDYYMSWIRQSPGKGLEWVSYISNSGSFTNYADSVKGRFTISRDNAKNSLYLQMNSLRAEDSAIYYCVRDQAPVTSKYYYYGMDVWGQGTTVTVSS
VL: B1 VL with L33F, G34A, S56R, D70E
B4: anti-IGF1R antibody 10D1 (antibody, human IgG1, V domains shown)
VH: B2 VH with V5Q, E6Q, D30A, E73D, K74N, N77H, L93F, V97A, T104S, Q117L
VL: B1 VL with E1A, V3Q, G28D, Q38L, R61G, D70E

The binders below were run against T1, human IGF1R (insulin-like growth factor 1 receptor) on cells (human, UniProt P08069 31-1367) (assay: cell-based or functional assay).
T1 sequence (P08069 31-1367 limits assumed): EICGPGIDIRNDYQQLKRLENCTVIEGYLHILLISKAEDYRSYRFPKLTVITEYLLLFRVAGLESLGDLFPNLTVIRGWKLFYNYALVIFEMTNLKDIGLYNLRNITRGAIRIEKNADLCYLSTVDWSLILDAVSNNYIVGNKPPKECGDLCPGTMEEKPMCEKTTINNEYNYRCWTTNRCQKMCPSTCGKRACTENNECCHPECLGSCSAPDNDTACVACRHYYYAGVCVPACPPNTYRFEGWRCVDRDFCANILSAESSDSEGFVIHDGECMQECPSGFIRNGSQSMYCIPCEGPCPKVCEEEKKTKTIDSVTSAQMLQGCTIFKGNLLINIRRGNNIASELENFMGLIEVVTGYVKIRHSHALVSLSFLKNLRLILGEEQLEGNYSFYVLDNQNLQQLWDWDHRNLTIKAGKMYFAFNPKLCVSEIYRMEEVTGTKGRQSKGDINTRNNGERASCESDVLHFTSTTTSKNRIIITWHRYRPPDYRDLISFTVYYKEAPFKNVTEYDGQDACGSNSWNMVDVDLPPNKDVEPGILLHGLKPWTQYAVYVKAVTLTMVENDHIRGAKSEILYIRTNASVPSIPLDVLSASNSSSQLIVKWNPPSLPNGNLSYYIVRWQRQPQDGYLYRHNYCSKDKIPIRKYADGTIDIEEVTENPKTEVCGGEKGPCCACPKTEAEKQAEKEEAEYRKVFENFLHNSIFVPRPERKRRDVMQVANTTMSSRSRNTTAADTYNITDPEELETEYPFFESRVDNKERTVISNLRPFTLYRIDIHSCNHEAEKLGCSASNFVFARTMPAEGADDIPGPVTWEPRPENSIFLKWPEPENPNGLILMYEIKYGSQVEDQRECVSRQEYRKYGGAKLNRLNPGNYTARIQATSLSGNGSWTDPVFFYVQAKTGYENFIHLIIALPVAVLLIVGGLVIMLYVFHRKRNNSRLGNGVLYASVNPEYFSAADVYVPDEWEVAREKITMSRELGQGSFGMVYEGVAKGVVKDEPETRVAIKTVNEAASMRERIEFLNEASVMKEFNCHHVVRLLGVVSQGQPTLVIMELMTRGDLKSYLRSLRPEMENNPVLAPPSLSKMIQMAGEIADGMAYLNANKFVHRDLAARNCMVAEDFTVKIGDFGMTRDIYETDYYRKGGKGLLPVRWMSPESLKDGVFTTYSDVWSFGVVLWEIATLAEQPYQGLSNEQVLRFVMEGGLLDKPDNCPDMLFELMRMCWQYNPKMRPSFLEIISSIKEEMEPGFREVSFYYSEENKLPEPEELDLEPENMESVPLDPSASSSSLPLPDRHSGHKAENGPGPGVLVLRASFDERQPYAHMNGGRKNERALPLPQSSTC

| IC50 of inhibition of IGF-1-induced OPN secretion (U2OS-TSHR cells) | Binder |
| --- | --- |
| 0.068 nM | B1 |
| 0.096 nM | B2 |
| 0.13 nM | B3 |
| 0.046 nM | B4 |

These binders were tested against T2, His-tagged human IGF1R protein (ACRO Biosystems Inc., Cat #: IGR-H5229) (human, UniProt P08069 31-932) (assay: SPR (Biacore 8K) on captured hIGF1R-His, binder injected second (Analyte 2); competitor injected first (Analyte 1): Teprotumumab analog).
T2 construct: Bought protein; also called hIGF1R-His; not shown: His tag
T2 sequence (P08069 31-932): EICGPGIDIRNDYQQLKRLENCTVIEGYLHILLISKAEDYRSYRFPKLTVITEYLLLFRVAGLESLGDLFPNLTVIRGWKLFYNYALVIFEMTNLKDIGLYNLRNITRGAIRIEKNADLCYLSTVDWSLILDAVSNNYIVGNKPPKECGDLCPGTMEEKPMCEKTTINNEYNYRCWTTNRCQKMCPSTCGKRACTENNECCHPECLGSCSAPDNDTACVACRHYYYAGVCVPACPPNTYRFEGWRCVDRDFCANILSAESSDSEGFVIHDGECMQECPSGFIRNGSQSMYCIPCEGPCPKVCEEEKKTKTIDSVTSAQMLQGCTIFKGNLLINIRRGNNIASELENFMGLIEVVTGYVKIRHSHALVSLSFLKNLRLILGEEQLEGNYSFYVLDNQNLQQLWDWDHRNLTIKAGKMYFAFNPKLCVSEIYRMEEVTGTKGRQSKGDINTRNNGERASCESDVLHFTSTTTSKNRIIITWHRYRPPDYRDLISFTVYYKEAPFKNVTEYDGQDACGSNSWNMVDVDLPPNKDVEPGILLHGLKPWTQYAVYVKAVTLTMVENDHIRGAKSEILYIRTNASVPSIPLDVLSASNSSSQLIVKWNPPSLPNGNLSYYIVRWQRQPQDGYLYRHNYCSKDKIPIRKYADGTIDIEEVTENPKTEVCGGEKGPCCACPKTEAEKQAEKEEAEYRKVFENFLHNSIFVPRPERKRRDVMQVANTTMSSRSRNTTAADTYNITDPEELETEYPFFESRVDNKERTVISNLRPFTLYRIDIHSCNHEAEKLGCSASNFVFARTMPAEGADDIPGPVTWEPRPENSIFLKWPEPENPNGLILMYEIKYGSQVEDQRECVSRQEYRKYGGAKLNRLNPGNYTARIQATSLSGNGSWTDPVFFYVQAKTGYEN
Description: (§1) Epitope binding assays were performed using Biacore™ 8K biosensor to determine whether two anti-IGF1R antibodies target the same or overlapping epitopes. 1×HBS-EP+ buffer (10 mM 4-(2-hydroxyethyl)-1-piperazineethanesulfonic acid (HEPES), 150 mM NaCl, 3 mM ethylenediaminetetraacetic acid (EDTA) and 0.05% P20, pH7.4) diluted from HBS-EP+buffer (10×) was used as the running buffer throughout the experiment. About 50 RU of hIGF1R-His was captured at a flow rate of 10 μL/min, and 200 nM of the tested antibody (Analyte 1) was injected at a flow rate of 30 uL/min to bind the ligand. Another comparison antibody (Analyte 2) was injected under the same conditions to determine whether the binding of different antibodies interfered with each other. The binding time was 180 s for each antibody.
(§2) The binding value of each antibody was obtained using Biacore Insight Evaluation (Version: 2.0.15.12933). To quantify the interference of one antibody binding to another, a binding ratio was calculated to compare each pair of antibodies. The binding ratio is defined as the binding value of the second antibody (Analyte 2) divided by the binding value of the first antibody (Analyte 1). The threshold to determine the block or non-block is 0.3.

| binding ratio (Analyte 2 / Analyte 1) | Binder |
| --- | --- |
| 0.01 | B1 |
| 0.01 | B2 |
| -0.03 | B3 |
| 0.03 | B4 |

Each binder was assayed against T3, cynomolgus monkey IGF1R on cells (cynomolgus monkey, UniProt P08069 31-1367 (human entry)) (assay: flow cytometry on CHO-S-fasIGF1R cells, antibody 20 µg/mL).
T3 construct: Expressed on CHO-S cells; also called fasIGF1R; CHO-S-fasIGF1R cells
T3 sequence (P08069 other isoform, or with tags, fused parts or gaps limits assumed): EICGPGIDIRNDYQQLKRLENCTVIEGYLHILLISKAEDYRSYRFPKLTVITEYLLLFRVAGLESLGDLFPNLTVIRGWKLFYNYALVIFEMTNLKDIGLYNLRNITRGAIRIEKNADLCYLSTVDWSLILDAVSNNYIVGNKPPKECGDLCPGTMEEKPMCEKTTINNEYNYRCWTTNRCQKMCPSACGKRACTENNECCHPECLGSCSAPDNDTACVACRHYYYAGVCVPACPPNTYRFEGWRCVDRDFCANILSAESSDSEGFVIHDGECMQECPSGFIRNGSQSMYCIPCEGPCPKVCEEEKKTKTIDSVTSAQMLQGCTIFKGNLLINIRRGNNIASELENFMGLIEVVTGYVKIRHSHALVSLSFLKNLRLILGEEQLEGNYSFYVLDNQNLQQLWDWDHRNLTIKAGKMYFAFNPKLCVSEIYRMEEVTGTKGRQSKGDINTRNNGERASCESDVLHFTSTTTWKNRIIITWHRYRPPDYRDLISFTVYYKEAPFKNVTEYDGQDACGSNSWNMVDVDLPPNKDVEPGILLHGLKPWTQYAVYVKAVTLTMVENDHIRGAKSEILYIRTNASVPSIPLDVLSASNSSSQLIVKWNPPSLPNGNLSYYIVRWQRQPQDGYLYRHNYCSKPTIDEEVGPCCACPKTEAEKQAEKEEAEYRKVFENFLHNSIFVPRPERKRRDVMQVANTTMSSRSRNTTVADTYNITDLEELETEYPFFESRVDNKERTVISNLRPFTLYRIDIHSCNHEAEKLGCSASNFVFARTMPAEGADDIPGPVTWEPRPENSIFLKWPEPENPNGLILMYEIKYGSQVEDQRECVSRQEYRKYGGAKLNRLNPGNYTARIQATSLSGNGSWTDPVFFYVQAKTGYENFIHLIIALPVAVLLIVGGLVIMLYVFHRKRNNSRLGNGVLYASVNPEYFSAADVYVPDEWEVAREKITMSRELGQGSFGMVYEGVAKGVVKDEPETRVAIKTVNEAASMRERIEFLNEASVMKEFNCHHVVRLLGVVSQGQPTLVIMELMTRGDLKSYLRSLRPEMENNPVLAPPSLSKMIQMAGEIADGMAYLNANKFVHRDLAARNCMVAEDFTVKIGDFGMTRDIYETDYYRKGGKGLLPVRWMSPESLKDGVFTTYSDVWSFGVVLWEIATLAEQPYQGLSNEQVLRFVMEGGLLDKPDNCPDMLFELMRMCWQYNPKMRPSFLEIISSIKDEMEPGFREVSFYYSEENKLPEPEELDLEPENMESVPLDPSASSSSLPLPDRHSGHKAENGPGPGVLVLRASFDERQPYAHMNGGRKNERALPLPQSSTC
Description: (§3) INSR (insulin receptor) and IGF1R are both members of the superfamily of receptor tyrosine kinases (RTKs). The binding activity of anti-IGF1R antibodies to human IGF1R, human INSR and monkey IGF1R was verified by flow cytometry. Briefly, CHO-S-hIGF1R cells (expressing human IGF1R (SEQ ID NO: 45), CHO-S-fasIGF1R cells (expressing cynomolgus monkey IGF1R (SEQ ID NO: 46) and CHO-S-hINSR (expressing SEQ ID NO: 47) were plated in a 96-well plate at a density of 2×10⁵ cells/well respectively. Purified anti-IGF1R antibody with a concentration of 20 μg/mL was added to each well and was incubated at 4° C. for 30 minutes. Then, after one wash with PBS, the cells were incubated with the secondary antibody Alexa Fluor® 647 anti-human IgG Fcγ (Jackson ImmunoResearch Laboratories, Inc., Cat #: 109-606-170) at 4° C. for 15 minutes before flow cytometry analysis. Human IgG1 was used as ISO control.

| Percentage of positive cells | Binder |
| --- | --- |
| 54.4% | B1 |
| 60.7% | B2 |
| 73.9% | B3 |
| 64.8% | B4 |

The binders below were run against T2, His-tagged human IGF1R protein (ACRO …) (assay: SPR (Biacore 8K) on captured hIGF1R-His, binder injected second (Analyte 2); competitor injected first (Analyte 1): 10D1).
Description: as §1, §2

| binding ratio (Analyte 2 / Analyte 1) | Binder |
| --- | --- |
| -0.05 | B1 |
| -0.04 | B2 |
| -0.04 | B3 |
| -0.02 | B4 |

These binders were tested against T1, human IGF1R (insulin-like growth factor …) (assay: flow cytometry on CHO-S-hIGF1R cells, antibody 20 µg/mL).
Description: as §3

| Percentage of positive cells | Binder |
| --- | --- |
| 50.3% | B1 |
| 39.3% | B2 |
| 46.4% | B3 |
| 36.5% | B4 |

Molecular target: T1, human IGF1R (insulin-like growth factor …)
Assay: cell-based or functional assay
Remark: another data set of the same source

| IC50 of inhibition of IGF1R phosphorylation (CHO-S-hIGF1R cells, IGF-1 added, phosphotyrosine IGF1R ELISA) | Binder |
| --- | --- |
| 0.9 nM | B1 |
| 1.3 nM | B2 |
| 1.2 nM | B3 |
| 1.4 nM | B4 |

The binders below were run against T4, human insulin receptor INSR on cells (human, UniProt P06213 28-1382) (assay: flow cytometry on CHO-S-hINSR cells, antibody 20 µg/mL).
T4 construct: Expressed on CHO-S cells; also called hINSR; CHO-S-hINSR cells
T4 sequence (P06213 other isoform, or with tags, fused parts or gaps limits assumed): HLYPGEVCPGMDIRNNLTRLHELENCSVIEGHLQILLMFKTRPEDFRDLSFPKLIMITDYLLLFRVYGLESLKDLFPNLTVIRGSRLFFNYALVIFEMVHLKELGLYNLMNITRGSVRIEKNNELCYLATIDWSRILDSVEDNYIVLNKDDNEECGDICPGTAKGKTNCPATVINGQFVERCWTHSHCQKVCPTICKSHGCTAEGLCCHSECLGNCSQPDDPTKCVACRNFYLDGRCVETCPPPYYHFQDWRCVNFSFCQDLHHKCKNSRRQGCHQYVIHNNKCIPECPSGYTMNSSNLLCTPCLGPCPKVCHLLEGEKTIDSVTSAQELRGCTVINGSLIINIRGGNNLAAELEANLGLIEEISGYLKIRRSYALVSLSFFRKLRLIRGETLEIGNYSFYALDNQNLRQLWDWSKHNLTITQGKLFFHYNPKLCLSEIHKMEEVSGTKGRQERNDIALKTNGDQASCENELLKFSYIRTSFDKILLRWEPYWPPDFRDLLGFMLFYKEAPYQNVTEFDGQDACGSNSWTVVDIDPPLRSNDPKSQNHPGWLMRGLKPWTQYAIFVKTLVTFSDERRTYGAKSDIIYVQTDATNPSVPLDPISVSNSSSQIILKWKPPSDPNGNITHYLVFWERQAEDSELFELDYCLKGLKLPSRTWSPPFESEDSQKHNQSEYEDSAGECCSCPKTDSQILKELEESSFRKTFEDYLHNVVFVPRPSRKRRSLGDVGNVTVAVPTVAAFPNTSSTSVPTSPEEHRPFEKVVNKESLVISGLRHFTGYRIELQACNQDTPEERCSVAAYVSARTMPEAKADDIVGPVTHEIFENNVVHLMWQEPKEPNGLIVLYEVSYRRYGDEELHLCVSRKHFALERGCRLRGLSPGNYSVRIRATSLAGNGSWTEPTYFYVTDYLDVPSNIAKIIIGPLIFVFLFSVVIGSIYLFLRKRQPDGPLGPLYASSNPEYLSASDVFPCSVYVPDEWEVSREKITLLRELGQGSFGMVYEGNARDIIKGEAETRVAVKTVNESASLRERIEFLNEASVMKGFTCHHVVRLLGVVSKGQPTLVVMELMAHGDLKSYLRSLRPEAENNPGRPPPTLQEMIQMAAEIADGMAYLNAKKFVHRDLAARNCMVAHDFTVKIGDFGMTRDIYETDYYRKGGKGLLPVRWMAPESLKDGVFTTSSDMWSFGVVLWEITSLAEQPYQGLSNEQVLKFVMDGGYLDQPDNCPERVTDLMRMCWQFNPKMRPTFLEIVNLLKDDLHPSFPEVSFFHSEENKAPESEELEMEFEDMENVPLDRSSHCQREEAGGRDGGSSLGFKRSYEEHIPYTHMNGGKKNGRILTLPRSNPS
Description: as §3

| Percentage of positive cells | Binder |
| --- | --- |
| 0.4% | B1 |
| 0.5% | B2 |
| 0.7% | B3 |
| 1.5% | B4 |

These binders were tested against T2, His-tagged human IGF1R protein (ACRO …) (assay: SPR (Biacore 8K) on captured hIGF1R-His, binder injected second (Analyte 2); competitor injected first (Analyte 1): 10G1).
Description: as §1, §2

| binding ratio (Analyte 2 / Analyte 1) | Binder |
| --- | --- |
| -0.01 | B1 |
| 0 | B2 |
| -0.01 | B3 |
| 0.02 | B4 |

The binders below were run against T2, His-tagged human IGF1R protein (ACRO …) (assay: SPR (Biacore 8K) on captured hIGF1R-His, binder injected second (Analyte 2); competitor injected first (Analyte 1): 12A4).
Description: as §1, §2

| binding ratio (Analyte 2 / Analyte 1) | Binder |
| --- | --- |
| -0.01 | B1 |
| 0 | B2 |
| -0.03 | B3 |
| 0.02 | B4 |
